In PMC8259415:

Experiments:
Abl2 SH2 domain = Abl2 SH2 domain (UniProt Q4JIM5); assay: SH2-coupled bead pull-down from lysate, blot; conditions: reference: wild type
[1] = target: Abl2 Src homology 2 (SH2) domain (UniProt Q4JIM5); assay: pull-down; Abl2 SH2 covalently linked to AminoLink beads, 1 μM; 0 to 2 μM PDGFRβ CD; 1 h at 4 °C; 50 mM Hepes pH 7.25, 150 mM NaCl, 5% glycerol, 1 mM DTT; SDS-PAGE, Coomassie densitometry, one-site specific binding fit

Chain of UniProt Q4JIM5 (Q4JIM5 173-263): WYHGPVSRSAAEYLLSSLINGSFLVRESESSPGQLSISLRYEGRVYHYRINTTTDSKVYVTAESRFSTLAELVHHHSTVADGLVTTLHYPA

With PDGFRβ (from UniProt P09619) Y751F the other: percent reduction relative to WT (Abl2 SH2 domain; sites Y751) was 10%.
PDGFRβ (from UniProt P09619) Y771F showed an other: percent reduction relative to WT (Abl2 SH2 domain; sites Y771) of 90%.
Substance “autophosphorylated PDGFRβ cytoplasmic domain (CD) (from UniProt P09619 554-1106) (domain or fragment)” has a Kd [1] of 260 nM.
